Here are results for 7 proteins from PMC8016129, “Switching the substrate specificity of lysoplasmalogen‐specific phospholipase D” (FEBS Open Bio, 2021).

Sequences and labels used below:
B1: LyPls-PLD (lysoplasmalogen-specific phospholipase D) (Thermocrispum sp. RD004668; F211L) (protein)
chain: TTRTTDNPWLDARVLNMAHAGGENEAPANTLYAFKRAVKLGANMLELDVQSTKDDQLVVIHNATVDQTTDGTGKVRDLTFEQVHELDAAYNFIPGRHAVPGEPPESYPLRGVRTGEKKPPPGYQPSDFAIPKLADVLEAFPRTPINIEIKGTSDADIPSFLHNAKLLARLLKKTGRTDFIVTSLNDLAVAKFHLLAPDIPIAPGMAGLAAYFLLGVKPMHGTVALQIPVRYQGLEIATPEFIRRAHADGYAVHVWFSGTAPDDEATYNRIIDSCADGLMPAYPALLERILDERGIERPGRPGVDPCG
notes: recombinant from pET24/lpls-pld in E. coli BL21(DE3); purified on HisTrap HP
B2: LyPls-PLD (lysoplasmalogen-specific phospholipase D) (Thermocrispum sp. RD004668; M71G) (protein)
chain: B1 chain with M44G, L184F
notes: as for B1
B3: LyPls-PLD (lysoplasmalogen-specific phospholipase D) (Thermocrispum sp. RD004668; W282G) (protein)
chain: B1 chain with L184F, W255G
notes: as for B1
B4: LyPls-PLD (lysoplasmalogen-specific phospholipase D) (Thermocrispum sp. RD004668) (protein)
chain: B1 chain with L184F
notes: as for B1
B5: LyPls-PLD (lysoplasmalogen-specific phospholipase D) (Thermocrispum sp. RD004668; N173A) (protein)
chain: B1 chain with N146A, L184F
notes: as for B1
B6: LyPls-PLD (lysoplasmalogen-specific phospholipase D) (Thermocrispum sp. RD004668; F211C) (protein)
chain: B1 chain with L184C
notes: as for B1
B7: LyPls-PLD (lysoplasmalogen-specific phospholipase D) (Thermocrispum sp. RD004668; F211T) (protein)
chain: B1 chain with L184T
notes: as for B1

Positions count from the first letter of the chain named. Names and notes keep the numbering of the source.

Substrate in the first data set: CCCCCCCCCCCCCCCC/C=C\OC[C@@H](O)COP(=O)([O-])OCC[N+](C)(C)C
Nature of the data set: released choline by choline oxidase/peroxidase colorimetric assay, Michaelis-Menten fit. It is filed as biochemical, Thermocrispum sp. RD004668. The note with it: pH 8.0, 50 °C, 1 min, 2 mM CaCl2, substrate micelles. The text has this:
(§1) released choline by choline oxidase/peroxidase colorimetric assay, Michaelis-Menten fit on LyPls-PLD (lysoplasmalogen-specific phospholipase D)
As for B1, the Michaelis-Menten constant (Km) amounted to 76.7 ± 12.6 µM, the kcat came out at 21 ± 0.91 s⁻¹ and the kcat/Km worked out at 271000 ± 46000 M⁻¹ s⁻¹.
The corresponding values for B2 are 64.8 ± 4.18 µM, 57 ± 2.5 s⁻¹ and 880000 ± 68500 M⁻¹ s⁻¹.
In the same order, the values of B3 are 286 ± 51.7 µM, 10.5 ± 0.95 s⁻¹ and 36000 ± 7250 M⁻¹ s⁻¹.
With B4, the Km stood at 88.9 ± 8.76 µM, the kcat worked out at 122 ± 3.47 s⁻¹ and the kcat/Km came out at 1.37e+06 ± 141000 M⁻¹ s⁻¹.
The corresponding values for B5 are 200 ± 42.3 µM, 42 ± 3.9 s⁻¹ and 212000 ± 49000 M⁻¹ s⁻¹.

Substrate in a further data set: CCCCCCCCCCCCCCCCOC[C@@H](O)COP(=O)([O-])OCC[N+](C)(C)C
The description is as above. It is filed as biochemical, Thermocrispum sp. RD004668. Particulars: pH 8.0, 50 °C, 1 min, 2 mM CaCl2, substrate micelles.
From the text: as §1
Regarding B1, the Michaelis-Menten constant (Km) was 26.8 ± 8.55 µM, the catalytic constant (kcat) is 187 ± 6.3 s⁻¹ and the catalytic efficiency (kcat/Km) was 6.97e+06 ± 2.24e+06 M⁻¹ s⁻¹.
Turning to B6, the Km is 52.2 ± 9.44 µM, the kcat was 207 ± 15 s⁻¹ and the catalytic efficiency (kcat/Km) was found to be 3.96e+06 ± 769000 M⁻¹ s⁻¹.
For the protein B2, the Km was 69.3 ± 10.2 µM, the kcat is 72 ± 2.9 s⁻¹ and the catalytic efficiency (kcat/Km) stood at 1.04e+06 ± 159000 M⁻¹ s⁻¹.
In the same order, the values of B3 are 71.7 ± 5.26 µM, 4.4 ± 0.082 s⁻¹ and 60900 ± 4630 M⁻¹ s⁻¹.
On to B4, for which the Michaelis-Menten constant (Km) turned out to be 56.4 ± 16.9 µM, the kcat was 74 ± 4.9 s⁻¹ and the kcat/Km is 1.3e+06 ± 400000 M⁻¹ s⁻¹.
In the same order, the values of B7 are 40.6 ± 5.49 µM, 205 ± 8.9 s⁻¹ and 5.06e+06 ± 720000 M⁻¹ s⁻¹.
B5: the Michaelis-Menten constant (Km) amounted to 110 ± 17.1 µM, the turnover number (kcat) was 106 ± 4.0 s⁻¹ and the catalytic efficiency (kcat/Km) came to 965000 ± 153000 M⁻¹ s⁻¹.
